From patent US20160113911A1, “METHODS AND COMPOSITIONS FOR THE TREATMENT OF CANCER” (THE GENERAL HOSPITAL CORPORATION, priority 2013, published 2016)
Where a chain is given by its changes, count along the chain named. Numbers in names are those of the source.

B1: 2A-V743I*: KDM4A mutation (protein, UniProt O75164 2-1064, looked up, variant V743I)
Lysine-specific demethylase 4A: ASESETLNPSARIMTFYPTMEEFRNFSRYIAYIESQGAHRAGLAKVVPPKEWKPRASYDDIDDLVIPAPIQQLVTGQSGLFTQYNIQKKAMTVREFRKIANSDKYCTPRYSEFEELERKYWKNLTFNPPIYGADVNGTLYEKHVDEWNIGRLRTILDLVEKESGITIEGVNTPYLYFGMWKTSFAWHTEDMDLYSINYLHFGEPKSWYSVPPEHGKRLERLAKGFFPGSAQSCEAFLRHKMTLISPLMLKKYGIPFDKVTQEAGEFMITFPYGYHAGFNHGFNCAESTNFATRRWIEYGKQAVLCSCRKDMVKISMDVFVRKFQPERYKLWKAGKDNTVIDHTLPTPEAAEFLKESELPPRAGNEEECPEEDMEGVEDGEEGDLKTSLAKHRIGTKRHRVCLEIPQEVSQSELFPKEDLSSEQYEMTECPAALAPVRPTHSSVRQVEDGLTFPDYSDSTEVKFEELKNVKLEEEDEEEEQAAAALDLSVNPASVGGRLVFSGSKKKSSSSLGSGSSRDSISSDSETSEPLSCRAQGQTGVLTVHSYAKGDGRVTVGEPCTRKKGSAARSFSERELAEVADEYMFSLEENKKSKGRRQPLSKLPRHHPLVLQECVSDDETSEQLTPEEEAEETEAWAKPLSQLWQNRPPNFEAEKEFNETMAQQAPHCAVCMIFQTYHQVEFGGFNQNCGNASDLAPQKQRTKPLIPEMCFTSTGCSTDINLSTPYLEEDGTSILVSCKKCSIRVHASCYGVPPAKASEDWMCSRCSANALEEDCCLCSLRGGALQRANDDRWVHVSCAVAILEARFVNIAERSPVDVSKIPLPRFKLKCIFCKKRRKRTAGCCVQCSHGRCPTAFHVSCAQAAGVMMQPDDWPFVVFITCFRHKIPNLERAKGALQSITAGQKVISKHKNGRFYQCEVVRLTTETFYEVNFDDGSFSDNLYPEDIVSQDCLQFGPPAEGEVVQVRWTDGQVYGAKFVASHPIQMYQVEFEDGSQLVVKRDDVYTLDEELPKRVKSRLSVASDMRFNEIFTEKEVKQEKKRQRVINSRYREDYIEPALYRAIME
B2: 2A-G278S: KDM4A mutation (protein)
chain: MASESETLNPSARIMTFYPTMEEFRNFSRYIAYIESQGAHRAGLAKVVPPKEWKPRASYDDIDDLVIPAPIQQLVTGQSGLFTQYNIQKKAMTVREFRKIANSDKYCTPRYSEFEELERKYWKNLTFNPPIYGADVNGTLYEKHVDEWNIGRLRTILDLVEKESGITIEGVNTPYLYFGMWKTSFAWHTEDMDLYSINYLHFGEPKSWYSVPPEHGKRLERLAKGFFPGSAQSCEAFLRHKMTLISPLMLKKYGIPFDKVTQEAGEFMITFPYGYHASFNHGFNCAESTNFATRRWIEYGKQAVLCSCRKDMVKISMDVFVRKFQPERYKLWKAGKDNTVIDHTLPTPEAAEFLKESELPPRAGNEEECPEEDMEGVEDGEEGDLKTSLAKHRIGTKRHRVCLEIPQEVSQSELFPKEDLSSEQYEMTECPAALAPVRPTHSSVRQVEDGLTFPDYSDSTEVKFEELKNVKLEEEDEEEEQAAAALDLSVNPASVGGRLVFSGSKKKSSSSLGSGSSRDSISSDSETSEPLSCRAQGQTGVLTVHSYAKGDGRVTVGEPCTRKKGSAARSFSERELAEVADEYMFSLEENKKSKGRRQPLSKLPRHHPLVLQECVSDDETSEQLTPEEEAEETEAWAKPLSQLWQNRPPNFEAEKEFNETMAQQAPHCAVCMIFQTYHQVEFGGFNQNCGNASDLAPQKQRTKPLIPEMCFTSTGCSTDINLSTPYLEEDGTSILVSCKKCSVRVHASCYGVPPAKASEDWMCSRCSANALEEDCCLCSLRGGALQRANDDRWVHVSCAVAILEARFVNIAERSPVDVSKIPLPRFKLKCIFCKKRRKRTAGCCVQCSHGRCPTAFHVSCAQAAGVMMQPDDWPFVVFITCFRHKIPNLERAKGALQSITAGQKVISKHKNGRFYQCEVVRLTTETFYEVNFDDGSFSDNLYPEDIVSQDCLQFGPPAEGEVVQVRWTDGQVYGAKFVASHPIQMYQVEFEDGSQLVVKRDDVYTLDEELPKRVKSRLSVASDMRFNEIFTEKEVKQEKKRQRVINSRYREDYIEPALYRAIME
B3: 2A-V490M: KDM4A mutation (protein)
chain: B2 chain with S278G, V490M
B4: 2A-E558Q: KDM4A mutation (protein)
chain: B2 chain with S278G, E558Q
B5: 2A-T289I: KDM4A mutation (protein)
chain: B2 chain with S278G, T289I
B6: 2A-P326T: KDM4A mutation (protein)
chain: B2 chain with S278G, P326T
B7: 2A-D524V: KDM4A mutation (protein)
chain: B2 chain with S278G, D524V
B8: 2A-P348L: KDM4A mutation (protein)
chain: B2 chain with S278G, P348L
B9: 2A-G376V: KDM4A mutation (protein)
chain: B2 chain with S278G, G376V
B10: 2A-R765Q: KDM4A mutation (protein)
chain: B2 chain with S278G, R765Q
B11: 2A-E368K: KDM4A mutation (protein)
chain: B2 chain with S278G, E368K
B12: 2A-V319M: KDM4A mutation (protein)
chain: B2 chain with S278G, V319M
B13: 2A-R498H: KDM4A mutation (protein)
chain: B2 chain with S278G, R498H
B14: 2A-E426K: KDM4A mutation (protein)
chain: B2 chain with S278G, E426K
B15: 2A-R400Q: KDM4A mutation (protein)
chain: B2 chain with S278G, R400Q

Tested on: H3K36me3
Experiment: H3K36 demethylase activity of KDM4A variants in transfected cells (immunofluorescence)
Type: cell-based
Set-up: key: + indicates active; − indicates inactive; +/− indicates partial acitivty
Conditions: KDM4A mutations
Procedure: The indicated NHF-tagged KDM4A deletion constructs were transfected into RPE cells grown on coverslips in 10 cm dishes using X-tremeGENE 9™ DNA transfection reagent (Roche). H3K36me3 and subcellular localization were assayed by examining transfected cells (positive for HA staining; HA.11 Covance) following fixation in 3.7% PFA in PBS (Whetstine et al., 2006).
All immunofluorescence experiments were performed as in (Black et al., 2013). For the localization experiment a minimum of 50 cells were blinded and scored. For the catalytic activity, cells overexpressing a high level of KDM4A WT or SNP-A482 were analyzed in a non quantitative manner.

Molecule	H3k36 Demethylase Activity
B1	+
B2	−
B3	+
B4	+
B5	−
B6	+
B7	+
B8	+
B9	+
B10	−
B11	+
B12	+
B13	+
B14	+
B15	+

Tested on: H3K9me3
Experiment: H3K9 demethylase activity of KDM4 variants in transfected cells
Type: cell-based
Set-up: key: + indicates active; − indicates inactive; +/− indicates partial acitivty
Conditions: KDM4A mutations

Molecule	H3k9 Demethylase Activity
B1	+
B2	−
B3	+
B4	+
B5	+/−
B6	+
B7	+
B8	+
B9	+
B10	−
B11	+
B12	+
B13	+
B14	+
B15	+
